# From US20090203602A1
# B1: D3 peptide (peptide)
# peptide: SGRPPMIVWFNRPFLIAVSHTHGQTILFMAKVINPVGA
# Legend:
# [1] = molecular target: BRAF V599E V-raf murine sarcoma viral oncogene homolog B1 V599E mutation, P15056; experiment: cell-based or functional assay
# [2] = molecular target: PRKCB1 (PKC beta I) Protein kinase C, beta 1, P05771; experiment: cell-based or functional assay
binder,measurement,setting,value
B1,% Inhibition mean,[1],99.8%
same,% Inhibition mean,[2],88%
